Columns and labels:
[1] = molecular target: T1, Mas-DH+Gly (42 amino acid precursor of Manduca sexta diuretic hormone)
T1 chain: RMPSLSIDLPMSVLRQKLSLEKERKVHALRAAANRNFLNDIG

Mas-DH[K22Q]+Gly = molecular target: T2, Mas-DH[K22Q]+Gly
T2 chain: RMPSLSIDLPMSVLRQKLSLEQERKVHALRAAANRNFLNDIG

Protein	proteolytic fragments recovered from culture medium of protease deletion strains (RPLC, ESI-MS) [1]	proteolytic fragments recovered from culture medium of the mkc7 deletion strain HKY21[pKSC3] (RPLC, ESI-MS) (Mas-DH[K22Q]+Gly)	proteolytic fragments recovered from culture medium of the yap3 deletion strain HKY20[pKSC3] (RPLC, ESI-MS) (Mas-DH[K22Q]+Gly)
Yap3 endoprotease (Yeast Aspartyl Protease 3, encoded by YAP3) (protein) ADGYEEIIITNQQSFYSVDLEVGTPPQNVTVLVDTGSSDLWIMGSDNPYCSSNSMGSSRRRVIDKRDDSSSGGSLINDINPFGWLTGTGSAIGPTATGLGGGSGTATQSVPASEATMDCQQYGTFSTSGSSTFRSNNTYFSISYGDGTFASGTFGTDVLDLSDLNVTGLSFAVANETNSTMGVLGIGLPELEVTYSGSTASHSGKAYKYDNFPIVLKNSGAIKSNTYSLYLNDSDAMHGTILFGAVDHSKYTGTLYTIPIVNTLSASGFSSPIQFDVTINGIGISDSGSSNKTLTTTKIPALLDSGTTLTYLPQTVVSMIATELGAQYSSRIGYYVLDCPSDDSMEIVFDFGGFHINAPLSSFILSTGTTCLLGIIPTSDDTGTILGDSFLTNAYVVYDLENLEISMAQARYNTTSENIEIITSSVPSAVKAPGYTNTWSTSASIVTGGNIFTVNSSQTASFSGNLTTSTASATSTSSKRN	both Yap3 and Mkc7 are capable of contributing to the cleavage of Mas-DH+Gly at the Lys^22 residue, as well as at other sites	suggesting that Yap3 cleaved after Arg at the two sites E R ↓ K V and L R ↓ Q K	
Mkc7 endoprotease (encoded by MKC7) (protein) DDDYELVELTNQNSFYSVELDIGTPPQKVTVLVDTGSSDLWVTGSDNPYCSTKKKDTTGSSFKQVNKDALASVVESVFTEISYDTTIVTSEATATFDSTASTSQLIDCATYGTFNTSKSSTFNSNNTEFSIAYGDTTFASGTWGHDQLSLNDLNITGLSFAVANETNSTVGVLGIGLPGLESTYSGVSLSSVQKSYTYNNFPMVLKNSGVIKSTAYSLFANDSDSKHGTILFGAVDHGKYAGDLYTIPIINTLQHRGYKDPIQFQVTLQGLGTSKGDKEDNLTTLTTTKIPVLLDSGTTISYMPTELVKMLADQVGATYSSAYGYYIMDCIKEMEEESSIIFDFGGFYLSNWLSDFQLVTDSRSNICILGIAPQSDPTIILGDNFLANTYVVYDLDNMEISMAQANFSDDGEYIEIIESAVPSALKAPGYSSTWSTYESIVSGGNMFSTAANSSISYFASTSHSATSSSSSKGQKTQTSTTALSISKSTSSTSSTGMLSPTSSSSTRKEN	both Yap3 and Mkc7 are capable of contributing to the cleavage of Mas-DH+Gly at the Lys^22 residue, as well as at other sites		suggesting that Mkc7 cleaved after Lys^25

Source: patent US20030044896
